Patent US20240317851A1 (LANOVA MEDICINES, published 2024)
Read-outs that look alike come from different tables or passages of the source.

T1: human Claudin 6 (human, UniProt P56747 1-220)
T1 construct: whole, on cells; also called CLDN6
T1 sequence (looked up): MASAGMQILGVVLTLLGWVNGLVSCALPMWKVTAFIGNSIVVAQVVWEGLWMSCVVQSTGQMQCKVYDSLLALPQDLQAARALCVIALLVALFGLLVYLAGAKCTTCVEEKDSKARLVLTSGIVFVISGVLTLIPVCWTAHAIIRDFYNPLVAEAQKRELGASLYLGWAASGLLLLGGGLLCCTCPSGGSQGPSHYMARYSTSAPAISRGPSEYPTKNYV

T2: human Claudin 9 (human, UniProt O95484 1-217)
T2 construct: whole, on cells; also called CLDN9; CLND9
T2 sequence (looked up): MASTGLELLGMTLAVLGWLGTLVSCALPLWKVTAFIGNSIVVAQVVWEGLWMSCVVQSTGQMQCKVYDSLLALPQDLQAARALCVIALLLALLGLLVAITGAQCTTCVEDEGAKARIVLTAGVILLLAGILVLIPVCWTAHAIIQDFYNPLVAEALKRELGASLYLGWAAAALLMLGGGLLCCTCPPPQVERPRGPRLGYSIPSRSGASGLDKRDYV

T3: human Claudin 3 (human, UniProt O15551 1-220)
T3 construct: whole, on cells; also called CLDN3
T3 sequence (looked up): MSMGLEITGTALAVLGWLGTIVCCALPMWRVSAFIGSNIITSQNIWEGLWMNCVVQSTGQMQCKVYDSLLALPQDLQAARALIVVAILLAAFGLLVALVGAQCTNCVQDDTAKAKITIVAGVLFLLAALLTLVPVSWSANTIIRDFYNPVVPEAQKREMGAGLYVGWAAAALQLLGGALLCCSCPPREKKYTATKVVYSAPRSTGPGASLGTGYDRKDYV


What was measured:
human Claudin 6 [1] = biological target: T1, human Claudin 6; experiment: flow cytometry, HEK293/H_CLDN6 cells, Ab titrated from 100 nM
Procedure: (§1) In this example, cell based binding of chimeric Abs on human CLDN6 & CLND9 over-expressing cell line were assessed using flow cytometry.
(§2) Briefly, the cells were incubated with chimeric Abs (from 100 nM, 6-fold dilution, 8 points) for 60 minutes at 4° C. Cells were pelleted and washed twice with 2% FBS/PBS buffer, and stained with fluorescent conjugated secondary antibody at 4° C. for 30 minutes. After that the cells were washed twice and resuspended in 80 μL of 2% FBS/PBS buffer. Fluorescent signal of binding was detected using Agilent. The EC50 was calculated using the GraphPad software (LaJolla, CA).

human Claudin 9 [2] = biological target: T2, human Claudin 9; experiment: flow cytometry, HEK293/H_CLDN9 cells, Ab titrated from 100 nM
Procedure: as §1, §2

human Claudin 3 [3] = biological target: T3, human Claudin 3; experiment: flow cytometry, CHOK1/H_CLDN3 cells
Procedure: (§3) In this example, cell-based binding of hu Abs on human CLDN3 expressing cells were assessed using flow cytometry.
(§4) Briefly, the CHOK1/H_CLDN3 cells were incubated with hu-Abs (from 100 nM, 6 folds dilution, 8 points). After incubation at 4° C. for 60 minutes. Cells were pelleted and washed twice with 2% FBS/PBS buffer, and stained with fluorescent conjugated secondary antibody at 4° C. for 30 minutes. After that the cells were washed twice and resuspended in 80 μL of 2% FBS/PBS buffer. Fluorescent signal of binding was detected using Agilent. The EC50 was calculated using the GraphPad software.

human Claudin 9 [4] = biological target: T2, human Claudin 9; experiment: flow cytometry, HEK293/H_CLDN9 cells, Ab titrated from 100 nM; remark: listed apart in the source
human Claudin 3 [5] = biological target: T3, human Claudin 3; experiment: flow cytometry, CHOK1/H_CLDN3 cells, Ab titrated from 100 nM
Procedure: as §3, §4

human Claudin 6 [6] = biological target: T1, human Claudin 6; experiment: flow cytometry, HEK293/H_CLDN6 cells, Ab titrated from 100 nM; remark: listed apart in the source
Procedure: In this example, cell-based binding of humanized antibodies (hu Abs) on human CLDN6 expressing cells were assessed using flow cytometry.
as §4, with “HEK293/H_CLDN6” for “CHOK1/H_CLDN3”

human Claudin 9 [7] = biological target: T2, human Claudin 9; experiment: flow cytometry, HEK293/H_CLDN9 cells
Procedure: In this example, cell-based binding of z5 toward human CLDN9 engineering expressing cells were assessed using flow cytometry.
as §4, with “2 cell lines” for “the CHOK1/H_CLDN3 cells”, “antibodies” for “hu-Abs”, “points)” for “points). After incubation”

human Claudin 9 [8] = biological target: T2, human Claudin 9; experiment: flow cytometry, HEK293/H_CLDN9 cells, Ab titrated from 100 nM; remark: listed apart in the source
Procedure: In this example, cell-based binding of hu Abs on human CLDN9 expressing cells were assessed using flow cytometry.
as §4, with “HEK293/H_CLDN9” for “CHOK1/H_CLDN3”, “software (LaJolla, CA).” for “software.”

Row | Top MFI (human Claudin 6 [1]) | Top MFI (human Claudin 9 [2]) | Top MFI (human Claudin 9 [4]) | Top MFI (human Claudin 3 [5]) | Top MFI (human Claudin 6 [6]) | Top MFI (human Claudin 9 [8]) | Binder | binding result (human Claudin 3 [3]) | binding result (human Claudin 9 [7])
1 | 285000 | 113000 | – | – | – | – | 85-H10A5 (antibody, V domains shown, Tested as chimeric antibody) VH: EVQLQQSGPELVKPGASVKISCKTSGYTFTEYPMHWVKQSHEKSLEWIGGINPKNGDANSNQKFKGKATLTVDKSSSTAYMELRSLTSEDSAVYYCARGWLLLFDVWGAGTMVTVSS VL: DIQMTQSSSSFSVSLGDRVTISCKASEDIYNRLAWYQQKPGNAPRLLISGATSLETGIPSRFSGSGSGKDYTLSITTLQTEDVAAYYCQQYWSSPLTFGAGTKLELR | – | –
2 | 117000 | 93300 | – | – | – | – | 23-B2F11 (antibody, V domains shown, Tested as chimeric antibody) VH: EVQLQQSGPELVKPGASVKISCKTSGYTFTEYTMHWVKQSHGRSLEWIGGINPNNGDTIYNQKFKGKATLTVDKSSSTAYMELRSLTSEDSAVYYCARRGGYGNFNFDYWGQGTTLTVSS VL: DIQMTQSSSSFSVSLRDRVTITCKASEDIYNRLAWYQQKPGNAPRLLISGATSLETGVPSRFSGSGSGKDYTLSITSLQTEDVATYYCQQYWSSPYTFGGGTKVEIK | – | –
3 | 379000 | 341000 | – | – | – | – | 59-H12C5 (antibody, V domains shown, Tested as chimeric antibody) VH: EVQLVESGGGLVQPGGSLKLSCAASGFTFSSHGMSWVRQTADRGLELVASINSNGGRTYYPDSMKGRFTISRDNAKNTLYLQLSSLQPEDTALYYCACYYDNTYYAMDYWGQGTSLTVSS VL: QIVLTQSPAIMSASLGERVTMTCTASSSVSSSSLHWYQQKPGSSPKLWIYTTSTLASGVPARFSGSGSGTSYSLTISSMEAEDAATYYCHQYHRSPPTFGGGTKLEIK | – | –
4 | – | – | 5810 | 297 | 159000 | – | 97-C10E1-2-P1.z9 (antibody, V domains shown) VH: QVQLQQSGAEVKKPGASVKVSCKASGYAFTGYTMNWVRQAPGQNLEWIGLSNPYNAGTIYNQKFKGRVTLTVDKSTSTVYMELLSLRSEDTAVYYCARNYYYGSSYAYYYAMDYWGQGTTVTVSS VL: DAQMTQSPSSLSASVGDRVTITCRSSTGAVTTSNYANWVQQKPGKAFKGLIGGTNNRAPGVPARFSGSLSGTDAALTISSLQPEDFATYFCALWYSNHWVFGGGTKVEIK | no binding (tested: 100 nM (highest concentration tested)) | –
5 | – | – | – | 158 | 115000 | 661 | 97-C10E1-2-P1.z14 (antibody, V domains shown) VH: QVQLQQSGAEVKKPGASMKISCKASGYAFTGYTMNWVRQAPGQNLEWIGLSNPYNAGTIYNQKFKGRATLTVDKSTSTAYMELLSLRSEDTAVYYCARNYYYGSSYAYYYAMDYWGQGTTVTVSS VL: DAQMTQSPSSLSASVGDRVTITCRSSTGAVTTSNYANWVQQKPGKAFKGLIGGTNNRAPGVPARFSGSLSGTDAALTISSLQPEDFATYFCALWYSNHWVFGGGTKVEIK | no binding (tested: 100 nM (highest concentration tested)) | no binding (tested: 100 nM (highest concentration tested))
6 | – | – | – | 136 | 45100 | 479 | 97-C10E1-2-P1.z1 (antibody, V domains shown) VH: QVQLVQSGAEVKKPGASVKVSCKASGYAFTGYTMNWVRQAPGQGLEWIGLSNPYNAGTIYNQKFKGRVTMTVDKSTSTVYMELSSLRSEDTAVYYCARNYYYGSSYAYYYAMDYWGQGTTVTVSS VL: EAVMTQSPATLSVSPGERATLSCRSSTGAVTTSNYANWVQQKPGQAPRLLIGGTNNRAPGIPARFSGSGSGDEATLTISSLQSEDFAVYFCALWYSNHWVFGGGTKVEIK | no binding (tested: 100 nM (highest concentration tested)) | no binding (tested: 100 nM (highest concentration tested))
7 | – | – | – | 118 | 31000 | 287 | 97-C10E1-2-P1.z11 (antibody, V domains shown) VH: QVQLQQSGAEVKKPGASMKISCKASGYAFTGYTMNWVRQAPGQNLEWIGLSNPYNAGTIYNQKFKGRATLTVDKSTSTAYMELLSLRSEDTAVYYCARNYYYGSSYAYYYAMDYWGQGTTVTVSS VL: EAVMTQSPATLSVSPGERATLSCRSSTGAVTTSNYANWVQQKPGQAPRLLIGGTNNRAPGIPARFSGSGSGDEATLTISSLQSEDFAVYFCALWYSNHWVFGGGTKVEIK | no binding (tested: 100 nM (highest concentration tested)) | no binding (tested: 100 nM (highest concentration tested))
8 | – | – | – | 130 | 107000 | 149 | 97-C10E1-2-P1.z12 (antibody, V domains shown) VH: QVQLQQSGAEVKKPGASMKISCKASGYAFTGYTMNWVRQAPGQNLEWIGLSNPYNAGTIYNQKFKGRATLTVDKSTSTAYMELLSLRSEDTAVYYCARNYYYGSSYAYYYAMDYWGQGTTVTVSS VL: EAVVTQSPATLSVSPGERATLSCRSSTGAVTTSNYANWVQEKPGQAFRGLIGGTNNRAPGIPARFSGSLSGDEATLTISSLQSEDFAVYFCALWYSNHWVFGGGTKVEIK | no binding (tested: 100 nM (highest concentration tested)) | no binding (tested: 100 nM (highest concentration tested))
9 | 264000 | 102000 | – | – | – | – | 59-A2E6 (antibody, V domains shown, Tested as chimeric antibody) VH: EVQLQQSGPELVKPGASVKISCKTSGYTFTEYTMHWVKQSHGKSLEWIGGINPKNGGTSYNQKFKGKATLTVDKSSSTVYMEFRSLTTEDSAVYYCARGMLVAFYFDCWGQGTTLTVSS VL: DIQMTQSPASQSASLGESVTITCLASQTIGTWLAWYQQKPGKSPQLLIYAATSLADGVPSRFSGSGSGTKFSFKISSLQAEDFVSYYCQQLYSTPYTFGGGTKLEIK | – | –
10 | 257000 | 105000 | – | – | – | – | 81-H10F8 (antibody, V domains shown, Tested as chimeric antibody) VH: EVQLQQSGPELVKPGASVKISCKTSGYTFTEYTMHWVKQSHGKSLEWIGGINPNNGGTSYNQKFKGKATLTVDKSSRTAYMELRSLTSEDSAVYYCARGMVVAFYFDCWGQGTTLTVSS VL: DIQMTQSPASQSASLGESVTITCLASQTIGTWLAWYQQKPGKSPQLLIYAATGLADGVPSRFSGGGSGTKFSFKISSLQVEDFVSYYCQQLYSTPYTFGGGTKLEIK | – | –
11 | 62100 | – | – | – | – | – | 36-E6A6 (antibody, V domains shown, Tested as chimeric antibody) VH: QVQLQQSGGEVVRPGTSVKVSCKASGYAFTNNLIEWVKQRPGQGLEWIGVIHPGSGGSNYNEKFKNKATLTTDKSSSTAYIQLSSLTSDDSAVYFCARRGRDYAMDYWGQGTSVTVSS VL: EIVLTQSPAIMSASLGEKVTMSCRASSSVNSIYWYQQKSDASPKLWIYYTSNLAPGVPARFSGSGSGNSYSLTIRSMEGEDAATYYCQQFTSSPLTFGAGTKLELK | – | –
